{
  "source": "paper PMC8548084",
  "about": "“The role of DDK and Treslin–MTBP in coordinating replication licensing and pre-initiation complex formation” (Open Biology, 2021)",
  "binders": {"B1": {"name": "Treslin/Ticrr, Xenopus (natural protein, UniProt D3IUT5 1-1985, looked up)", "chain": "MAPSHNVVLLVDTAESSDKSRLRRVSLRLLNFLACRAGLGQVRWSYRFLNSSGGRCRPPRRSDLRELGPRGWEEFEDELEACWERARNCRPSSTQSSRAQLLQTALMETLADFQWDRPDITSPTKPTLLRSRRGRIVAADEPLKDDSPDNFINPHSRNSIFLLSSCPHSGTELGQFAATSGDFSTQKVMDKLLPKSLQKIVSSKRVRVYWLDTSDWTQFGSSSDHSGYWTMVELMHQVEGRILPSESILGSSCQKAKTLPSFSVPPINIPFESVLNYLIFSEPDYQLWFPRRDGILFLTGKDGTKQLDCAVSLEPVSMIQKLSTSLMTIELKGTMQNCNLPLAGLRVETWLLHNSDCVQLQKLTKELMLKELHMIATVTLEDDVLPRTGILSPLSETAAVLNVICSERTLGLDNLHVQGSVHETDKETFSDLPDIVMSVLNHVYSSEDNTLAPDFPVPEWIKQELSQSSRWTSSVTARWYPLSGVSGASCNLMESFRLINAASSNCDEHLKFDQELTNYLSEFYQKKSVDDAGLGVHRENQKKSGLPRTPVRQKMKTLPRALQMLNAARLNVKAQKADSTLPVPNEKNSQMKRRSSGKQDNKPKQLKPTEFQSEDGLISYIKENYEEAVSLVDHSTMTWARDTLTTIKSYLKSIGSEQIETEAIDKVKLLFKTSKVIRQNYRNNQDKEVKLKECQLQVFLRLEMFVQCPVIQMDSDELELIIEEITDILRIVSLTEDPLFLTKFLEVDVLTQYIASVPKILADIYFSLGTQIPEVLVLVLPSDGDDSIMHEEKSVKSQPSTSRVPSVAPIGAETDQLEDLRTRSAKKRRSTALARHRSVAESSQSFRQIEVPKRQPNKENVQSNAVVVLEKLKLPLPAQPQKDAEAKVRRNLFIQETRSPSKRCSKMPRSQSVSAVESLKRKRSKSHDGSKDHHKLLTKKVSETPVHKQTANRLLLRQIKGRPSESNSNISIVEESPEKEIRDIDLRRSPRIKQLSLTRRNSSSFYASQPKSRNLERVNSATQLQQSRERPGSCLISEVKTPKRLLFGEVLGMISPPTTKRSRRILDMVNPVYKTPGKTPRKTPSKNIPNFEDQSGNMLVKSPCTPYTPRTPSRTPKRLKTPSKGSTERKKAAKNLGKLFSPSKPEEKSPLKLWGRRSERLAQMTPGKDGSPYKQSVCQTLMEVKTPQKLQRLESKDFRTPSRTPTRSNNTTPAKQSMQISNTPRKSDLKHPQEHESRGPSGYILWTPQKRILASVPHTPILQTPQKPISASVPRTPVCRTPQKAILSSVPSTPVCQTPNKAILTSVSRTPVYQTPQKAILASVMSTPVYQTPQKPVLASVPTTPILKTPQRSALASVSHTPSPKKYIMKELTVAITRMRECTPEKVLGSNLSSSATPSSALKSFCSEKTTSVCQTPKKSSIALLKPCDSLEFSGAPERLMDSLCSNKDSTKAETACTVPSQISTQMQNVINAGECTDSLSQTSVSSPSIPFTDKSLSPDLKDALSDVTSSKAEGVTIVSEKLDSSSMDSQEATDSFINSSQTEESIDISEARVVSTEASELKMKVLITRKPSGSGVSYLPTTPKCLGNVCSTSTYGLRCTPDRRQREAAARLGTPEIPAKFSTPKSHCKMIPQSIYEVELEMQESGLPKLRFKRTDSNSTIDMDVNKTPKISRKRKGDESPFNEKWCSKHAVRTEPACVSPSCVRTSHYTPGKSGIQTFICQSYTPNRCLSAAASPSQSDAGVPWTPSPKEKLSTDVINSWPRKKKASALCTNLLKCDKIPEYAEEDGGDFELEGVSKLLEKSPVIEQQSKVDGGTFGLRSRKRVFSLVSPTKETENPVKRVCTFNRHEDSSTATHRHQTKEEMEIFSSDQSRSSYLSSSQQSICDDVFNMSDFTPPSKVPKNPLSACGLLTLTQSPLLYKGKTPSSKRKEKIQDVFSDGDSDHGTPTLKRPTNPAAVSDDSPFRKVNPLRSISKTYSRKKLIT", "notes": "Treslin (Ticrr) of Xenopus laevis, endogenous in egg extract; 220 kDa as printed; no sites are mapped"}},
  "target": "T1, MTBP (Mdm2 Binding Protein), Xenopus (Xenopus laevis (endogenous in egg …, UniProt Q6NRW0 1-860))",
  "T1 construct": "MTBP of Xenopus laevis, endogenous in egg extract; 96 kDa as printed; Printed N-terminal 125 residues (antigen MTBP-2): [residues removed]",
  "T1 sequence (looked up)": "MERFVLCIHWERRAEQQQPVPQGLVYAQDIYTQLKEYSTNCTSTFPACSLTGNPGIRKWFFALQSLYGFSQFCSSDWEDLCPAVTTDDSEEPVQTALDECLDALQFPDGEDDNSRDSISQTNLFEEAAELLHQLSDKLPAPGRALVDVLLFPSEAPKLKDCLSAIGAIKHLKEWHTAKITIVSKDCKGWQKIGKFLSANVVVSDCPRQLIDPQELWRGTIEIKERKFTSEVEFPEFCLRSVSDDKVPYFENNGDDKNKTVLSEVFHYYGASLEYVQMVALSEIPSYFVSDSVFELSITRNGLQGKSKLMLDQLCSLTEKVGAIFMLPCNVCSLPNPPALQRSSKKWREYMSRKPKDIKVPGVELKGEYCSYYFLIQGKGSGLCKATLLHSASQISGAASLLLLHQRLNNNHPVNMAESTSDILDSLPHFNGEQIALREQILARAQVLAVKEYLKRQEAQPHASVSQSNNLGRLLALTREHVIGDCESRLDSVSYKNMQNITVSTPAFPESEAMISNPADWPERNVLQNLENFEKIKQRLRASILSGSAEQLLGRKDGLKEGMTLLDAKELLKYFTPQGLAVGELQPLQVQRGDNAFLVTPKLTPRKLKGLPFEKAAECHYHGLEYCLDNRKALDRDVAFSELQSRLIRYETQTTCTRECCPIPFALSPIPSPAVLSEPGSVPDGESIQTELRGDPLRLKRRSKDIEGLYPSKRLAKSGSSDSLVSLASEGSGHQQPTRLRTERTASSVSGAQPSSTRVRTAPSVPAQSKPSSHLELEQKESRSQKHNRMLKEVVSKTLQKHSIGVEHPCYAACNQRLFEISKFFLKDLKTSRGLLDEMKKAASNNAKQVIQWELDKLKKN",
  "assay": "SEC + other: sucrose gradient centrifugation; 3% PEG-precipitated proteins of Xenopus egg extract in LFB1/50; Agilent BIO SEC-5 column at 4°C and 5-40% sucrose gradient; fractions immunoblotted for MTBP and Treslin; native mass by the Siegel and Monty equation",
  "conditions": "partners not purified",
  "data": [
    {"binder": "B1", "values": [
      {"measurement": "stoichiometry N", "result": "2 molecules of Treslin with 2 molecules of MTBP"}
    ]}
  ]
}
